{"source": "paper PMC7962898", "molecular_target": "Porcine Epidemic Diarrhea Virus Spike ectodomain, Sf9 expressed (Porcine epidemic diarrhea virus (PEDV) USA/Colorado/2013) (UniProt Q91AV1)", "test": "cryo-EM structure", "data": [{"substance": "Porcine Epidemic Diarrhea Virus Spike ectodomain, Sf9 expressed (from UniProt Q91AV1 26-1322) (domain or fragment)", "values": [{"measurement": "stoichiometry N", "value": 3}]}]}
